Measurements: the supplement of paper PMC9170038

System: MS2 coat protein
Experiment: apparent KD of MS2 coat protein; designed switch direction (-1 OFF switch, 1 ON switch): -1; higher = weaker reporter binding
Method in brief: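 Designed RNA switches sharing common flanks were transcribed on Illumina chips by stalled E. coli RNA polymerase. They were titrated with SNAP-549-labelled MS2 coat protein, from 0.7 or 1.5 nM doubling to 3 µM, in Tris-HCl pH 7.5 buffer with KCl, MgCl2, BSA, DTT, tRNA and Tween-20. Titrations ran without input, with 200 uM small-molecule ligand, or with an oligonucleotide input. The apparent KD of each design is the median over its clusters, after curve-fitting of normalised cluster fluorescence.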

[1] = Eterna round: R95, input ligand: FMN 200 uM
[2] = Eterna round: R95, input ligand: microRNA oligo, concentration not stated
[3] = Eterna round: R95, input ligand: none
[4] = input ligand: microRNA oligo, concentration not stated

Row | Sequence | apparent KD of MS2 coat protein (input ligand: FMN 200 uM) [nM] | apparent KD of MS2 coat protein (input ligand: none) [nM] | apparent KD of MS2 coat protein [1] [nM] | apparent KD of MS2 coat protein [2] [nM] | apparent KD of MS2 coat protein [3] [nM] | apparent KD of MS2 coat protein [4] [nM]
1 | GCUGGACAAGGAUAUGCAAUCGUGCUUCGGCACGUAAGAUCACAUGAGGAUCACCCAUGUAGAAGGUGUCCAGC [E2/3-C2] (Eterna round: R97, puzzle: Exclusion 2) | 62.5 | 24 |  |  |  | 
2 | GCUGGACGAGGAUAUAUAUGACGUGCUUCGGCACGAAGAUCACAUGAGGAUCACCCAUGUAGAAGGUGUCCAGC [E2/8-B2] (Eterna round: R97, puzzle: Exclusion 2) | 278 | 54.1 |  |  |  | 
3 | GCUGGCUGAGGAUAUCUAUCCAUGAACAUGAGGAUCACCCAUGUAAACGUGGAGUGAGAUAGAGAAGGCGGGCAGA [EX5 A.13] (Eterna round: R97, puzzle: Exclusion 5) | 13.6 | 11.2 |  |  |  | 
4 | GCUGGUCGAGGAUAUACAUGAGGAUCACCCAUGUAGAUCAACCAGCGAUAGCUGGAAUGUAGAAGGCGACCAGC [E3/5-A1] (Eterna round: R97, puzzle: Exclusion 3) | 125 | 22.9 |  |  |  | 
5 | GCUGGUCGAGGAUAUACAUUCGUGCUUCGGCACGUAAGGUCACAUGAGGAUCACCCAUGUAGAAGGCGACCAGC [E2/7-A1] (Eterna round: R97, puzzle: Exclusion 2) | 258 | 42.2 |  |  |  | 
6 | GCUGGUCGAGGAUAUGCAAUCGUGCUUCGGCACGUAAGGUCACAUGAGGAUCACCCAUGUAGAAGGCGACCAGC [E2/4-A1] (Eterna round: R97, puzzle: Exclusion 2) | 32.5 | 19.2 |  |  |  | 
7 | GCUUGAGCAGGAUAUACAUGAGGAUCACCCAUGUGCUUGAGCUUGAUCGAGUUCGAGUGUAGAAGGGUUCGAGU [-26.9, -23.9 kcal, 24% A, 1 bis, 1 bis] (Eterna round: R97, puzzle: Exclusion 3) | 20.8 | 19.7 |  |  |  | 
8 | GCUUGUAGAGGAUAUACGAGGGCCCGAGCGGAUAACACCGCACAUGAGGAUCACCCAUGUAGAAGGCUACUACC [JL-ex2-4.17 ViennaUCT mod] (Eterna round: R97, puzzle: Exclusion 2) | 495 | 92.3 |  |  |  | 
9 | GCUUUUCUUUUCCUUUCUUACAUGAGGAUCACCCAUGUUUCUUGUCGUCCUCGCGUUGCUCGUCUGUCUGUCUGUUG [salish99_TOv1_r3_078] (puzzle: Sensor v3, turn-off variant 1) |  |  | 97.8 | 135 | 95.9 | 
10 | GCUUUUGGGCAAGGAUAUCCUGCGCUGUUCUGGUUCGUGUCUGUCACAUGAGGAUCACCCAUGUGGGAGAAGGUGCCUGUGGUG [Design 70] (Eterna round: R96, puzzle: Exclusion NG 2) | 17 | 19.2 |  |  |  | 14.7
11 | GGAAAACAUGAGGAUCACCCAUGUAAGGAUAUGCAAAAGGAUAUAGAAGGAAAAAAAAGCAGAAGGUACAAAGG [salish99-ex1-21] (Eterna round: R96, puzzle: Exclusion 1) |  |  |  |  |  | 34
12 | GGAAAACAUGAGGAUCACCCAUGUAAGGAUAUGCAAAAGGAUAUAGAAGGAAAAAAAAGCAGAAGGUACAAAGG [salish99-ex1_r3_094] (puzzle: Exclusion 1) |  |  | 132 | 36.3 | 32.8 | 
13 | GGAAAACAUGAGGAUCACCCAUGUAAGGAUAUGCAAAAGGAUAUAGAAGGAAUAAAAAGCAGAAGGUACAAAGG [salish99-ex1_r3_096] (puzzle: Exclusion 1) |  |  | 116 | 45.7 | 66.6 | 
14 | GGAAACCGAGGAUAUCAGUACACGCACAUGAGGAUCACCCAUGUGCUCCUGGGUGCUGUCUGAGAAGGCGGUGAGA [Quan] (Eterna round: R97, puzzle: Exclusion 5) | 648 | 1620 |  |  |  | 
15 | GGAAAGCAAGGAUAUACAAGUAAACGACGGAAAGUAGAGAGACAUGAGGAUCACCCAUGUAGAAGGUGCGAGAG [JR_Exclu2_Sub035] (puzzle: Exclusion 2) |  |  | 19 | 26.9 | 20.1 | 
16 | GGAAAGCAAGGAUAUACGAGGAGAAGGAGGAAAGUAAAAGGACAUGAGGAUCACCCAUGUAGAAGGUGCGAGAG [JR_Exclu2_Sub040] (puzzle: Exclusion 2) |  |  | 27.6 | 29.7 | 32.9 | 
17 | GGAAGACAUGAGGAUCACCCAUGUAAGGAUAUCGAAGGUAAGAGAGGAAAGAAGGGAACGAGAAGGUACAGGUG [JR_Exclu1_Sub095] (puzzle: Exclusion 1) |  |  | 102 | 88.9 | 123 | 
18 | GGAAGCAAGGAAUAACUAAACAUGAGGAUCACCCAUGUAGAGCCCAUGUGCACGCAAAGCGUGCAAGCUCGUCUUAU [AK-miRNA-r3-17] (Eterna round: R97, puzzle: Sensor, turn-off variant 1) | 64.4 | 80.8 |  |  |  | 
19 | GGAAGGAGUGUAAGGAUAUCCUCCUCGAAAGAGGAGGAGAAGGUACAUGAGGAUCACCCAUGUAGAGGAGGAGG [AK-MS2ROC-r4-Bmoexclusion4-10.1] (Eterna round: R97, puzzle: Brourd's mod of Exclusion 4) | 73.6 | 35.7 |  |  |  | 
20 | GGAAGGCGAGGAUAUACAAUAAAGAAAGCGAAAGACAUGAAACAUGAGGAUCACCCAUGUAGAAGGCGCGGAGA [AK-MS2ROC-r4-exclusion2-9] (Eterna round: R97, puzzle: Exclusion 2) | 16.5 | 13.8 |  |  |  | 
21 | GGAAGGCGAGGAUAUGCAAUAAUACACUAAUUAAUGUGAAAACAUGAGGAUCACCCAUGUAGAAGGCGCGAGAA [AK-MS2ROC-r4-exclusion2-5] (Eterna round: R97, puzzle: Exclusion 2) | 21.2 | 20.7 |  |  |  | 
22 | GGAAUACAUGAGGAUCACCCAUGUAAGGAUAUGCUGAUUAAAUUGGAUUAAUUAUGCAGCAGAAGGUACAAAAG [Mat - Mod of my Eli Mod D49] (puzzle: Exclusion 1) |  |  |  | 82.3 |  | 
23 | GGAAUACAUGAGGAUCACCCAUGUAAGGAUAUGCUGAUUAAUUAAUUAUAAUUAUGCAGCAGAAGGUACAAAGG [Mat - Mod of my Eli Mod D50] (puzzle: Exclusion 1) |  |  |  | 87 |  | 
24 | GGAAUGAGAGAGGAUAUGGGAGGGAGGACCGGACCAGAAGGCUCGACAUGAGGAUCACCCAUGUAGAGAUCCUC [AK-MS2ROC-r4-exclusion6-6.10] (Eterna round: R97, puzzle: Exclusion 6) | 260 | 75.7 |  |  |  | 
25 | GGAAUGUAAGGAUAUGCGAAAAGAAGCCGAAGGGAGUCGAAGCAGAAGGUACAUGAGGAUCACCCAUGUAAGGG [AK-MS2ROC-r4-exclusion4-12.1] (Eterna round: R97, puzzle: Exclusion 4) | 159 | 700 |  |  |  | 
26 | GGACAUGCAGGAUAUGUAAAAUUUGACAUGAGGAUCACCCAUGUAGAUCCUGAAUUUCCUGCAGAAGGGCAUGUCC [Mat - Exclusion 5 - Eli Mod - D18] (Eterna round: R97, puzzle: Exclusion 5) | 396 | 109 |  |  |  | 
